Data as given in publication PMC1868598.

B1: human ClC-6 (hClC-6a): AAAA-hClC-6 (protein)
parent chain: MAGCRGSLCCCCRWCCCCGERETRTPEELTILGETQEEEDEILPRKDYESLDYDRCINDPYLEVLETMDNKKGRRYEAVKWMVVFAIGVCTGLVGLFVDFFVRLFTQLKFGVVQTSVEECSQKGCLALSLLELLGFNLTFVFLASLLVLIEPVAAGSGIPEVKCYLNGVKVPGIVRLRTLLCKVLGVLFSVAGGLFVEKEGPMIHSGSVVGAGLPQFQSISLRKIQFNFPYFRSDRDKRDFVSAGAAAGVAAAFGAPIGGTLFSLEEGSSFWNQGLTWKVLFCSMSATFTLNFFRSGIQFGSWGSFQLPGLLNFGEFKCSDSDKKCHLWTAMDLGFFVVMGVIGGLLGATFNCLNKRLAKYRMRNVHPKPKLVRVLESLLVSLVTTVVVFVASMVLGECRQMSSSSQIGNDSFQLQVTEDVNSSIKTFFCPNDTYNDMATLFFNPQESAILQLFHQDGTFSPVTLALFFVLYFLLACWTYGISVPSGLFVPSLLCGAAFGRLVANVLKSYIGLGHIYSGTFALIGAAAFLGGVVRMTISLTVILIESTNEITYGLPIMVTLMVAKWTGDFFNKGIYDIHVGLRGVPLLEWETEVEMDKLRASDIMEPNLTYVYPHTRIQSLVSILRTTVHHAFPVVTENRGNEKEFMKGNQLISNNIKFKKSSILTRAGEQRKRSQSMKSYPSSELRNMCDEHIASEEPAEKEDLLQQMLERRYTPYPNLYPDQSPSEDWTMEERFRPLTFHGLILRSQLVTLLVRGVCYSESQSSASQPRLSYAEMAEDYPRYPDIHDLDLTLLNPRMIVDVTPYMNPSPFTVSPNTHVSQVFNLFRTMGLRHLPVVNAVGEIVGIITRHNLTYEFLQARLRQHYQTI
B2: human ClC-6 (hClC-6a): AAN-hClC-6: N410A/N422A (protein)
parent chain: MAGCRGSLCCCCRWCCCCGERETRTPEELTILGETQEEEDEILPRKDYESLDYDRCINDPYLEVLETMDNKKGRRYEAVKWMVVFAIGVCTGLVGLFVDFFVRLFTQLKFGVVQTSVEECSQKGCLALSLLELLGFNLTFVFLASLLVLIEPVAAGSGIPEVKCYLNGVKVPGIVRLRTLLCKVLGVLFSVAGGLFVEKEGPMIHSGSVVGAGLPQFQSISLRKIQFNFPYFRSDRDKRDFVSAGAAAGVAAAFGAPIGGTLFSLEEGSSFWNQGLTWKVLFCSMSATFTLNFFRSGIQFGSWGSFQLPGLLNFGEFKCSDSDKKCHLWTAMDLGFFVVMGVIGGLLGATFNCLNKRLAKYRMRNVHPKPKLVRVLESLLVSLVTTVVVFVASMVLGECRQMSSSSQIGNDSFQLQVTEDVNSSIKTFFCPNDTYNDMATLFFNPQESAILQLFHQDGTFSPVTLALFFVLYFLLACWTYGISVPSGLFVPSLLCGAAFGRLVANVLKSYIGLGHIYSGTFALIGAAAFLGGVVRMTISLTVILIESTNEITYGLPIMVTLMVAKWTGDFFNKGIYDIHVGLRGVPLLEWETEVEMDKLRASDIMEPNLTYVYPHTRIQSLVSILRTTVHHAFPVVTENRGNEKEFMKGNQLISNNIKFKKSSILTRAGEQRKRSQSMKSYPSSELRNMCDEHIASEEPAEKEDLLQQMLERRYTPYPNLYPDQSPSEDWTMEERFRPLTFHGLILRSQLVTLLVRGVCYSESQSSASQPRLSYAEMAEDYPRYPDIHDLDLTLLNPRMIVDVTPYMNPSPFTVSPNTHVSQVFNLFRTMGLRHLPVVNAVGEIVGIITRHNLTYEFLQARLRQHYQTI
B3: human ClC-6 (hClC-6a): ANN-hClC-6: N410A (protein)
parent chain: MAGCRGSLCCCCRWCCCCGERETRTPEELTILGETQEEEDEILPRKDYESLDYDRCINDPYLEVLETMDNKKGRRYEAVKWMVVFAIGVCTGLVGLFVDFFVRLFTQLKFGVVQTSVEECSQKGCLALSLLELLGFNLTFVFLASLLVLIEPVAAGSGIPEVKCYLNGVKVPGIVRLRTLLCKVLGVLFSVAGGLFVEKEGPMIHSGSVVGAGLPQFQSISLRKIQFNFPYFRSDRDKRDFVSAGAAAGVAAAFGAPIGGTLFSLEEGSSFWNQGLTWKVLFCSMSATFTLNFFRSGIQFGSWGSFQLPGLLNFGEFKCSDSDKKCHLWTAMDLGFFVVMGVIGGLLGATFNCLNKRLAKYRMRNVHPKPKLVRVLESLLVSLVTTVVVFVASMVLGECRQMSSSSQIGNDSFQLQVTEDVNSSIKTFFCPNDTYNDMATLFFNPQESAILQLFHQDGTFSPVTLALFFVLYFLLACWTYGISVPSGLFVPSLLCGAAFGRLVANVLKSYIGLGHIYSGTFALIGAAAFLGGVVRMTISLTVILIESTNEITYGLPIMVTLMVAKWTGDFFNKGIYDIHVGLRGVPLLEWETEVEMDKLRASDIMEPNLTYVYPHTRIQSLVSILRTTVHHAFPVVTENRGNEKEFMKGNQLISNNIKFKKSSILTRAGEQRKRSQSMKSYPSSELRNMCDEHIASEEPAEKEDLLQQMLERRYTPYPNLYPDQSPSEDWTMEERFRPLTFHGLILRSQLVTLLVRGVCYSESQSSASQPRLSYAEMAEDYPRYPDIHDLDLTLLNPRMIVDVTPYMNPSPFTVSPNTHVSQVFNLFRTMGLRHLPVVNAVGEIVGIITRHNLTYEFLQARLRQHYQTI
B4: human ClC-6 (hClC-6a): NNA-hClC-6: N432A (protein)
parent chain: MAGCRGSLCCCCRWCCCCGERETRTPEELTILGETQEEEDEILPRKDYESLDYDRCINDPYLEVLETMDNKKGRRYEAVKWMVVFAIGVCTGLVGLFVDFFVRLFTQLKFGVVQTSVEECSQKGCLALSLLELLGFNLTFVFLASLLVLIEPVAAGSGIPEVKCYLNGVKVPGIVRLRTLLCKVLGVLFSVAGGLFVEKEGPMIHSGSVVGAGLPQFQSISLRKIQFNFPYFRSDRDKRDFVSAGAAAGVAAAFGAPIGGTLFSLEEGSSFWNQGLTWKVLFCSMSATFTLNFFRSGIQFGSWGSFQLPGLLNFGEFKCSDSDKKCHLWTAMDLGFFVVMGVIGGLLGATFNCLNKRLAKYRMRNVHPKPKLVRVLESLLVSLVTTVVVFVASMVLGECRQMSSSSQIGNDSFQLQVTEDVNSSIKTFFCPNDTYNDMATLFFNPQESAILQLFHQDGTFSPVTLALFFVLYFLLACWTYGISVPSGLFVPSLLCGAAFGRLVANVLKSYIGLGHIYSGTFALIGAAAFLGGVVRMTISLTVILIESTNEITYGLPIMVTLMVAKWTGDFFNKGIYDIHVGLRGVPLLEWETEVEMDKLRASDIMEPNLTYVYPHTRIQSLVSILRTTVHHAFPVVTENRGNEKEFMKGNQLISNNIKFKKSSILTRAGEQRKRSQSMKSYPSSELRNMCDEHIASEEPAEKEDLLQQMLERRYTPYPNLYPDQSPSEDWTMEERFRPLTFHGLILRSQLVTLLVRGVCYSESQSSASQPRLSYAEMAEDYPRYPDIHDLDLTLLNPRMIVDVTPYMNPSPFTVSPNTHVSQVFNLFRTMGLRHLPVVNAVGEIVGIITRHNLTYEFLQARLRQHYQTI
B5: human ClC-6 (hClC-6a): NAA-hClC-6: N422A/N432A (protein)
parent chain: MAGCRGSLCCCCRWCCCCGERETRTPEELTILGETQEEEDEILPRKDYESLDYDRCINDPYLEVLETMDNKKGRRYEAVKWMVVFAIGVCTGLVGLFVDFFVRLFTQLKFGVVQTSVEECSQKGCLALSLLELLGFNLTFVFLASLLVLIEPVAAGSGIPEVKCYLNGVKVPGIVRLRTLLCKVLGVLFSVAGGLFVEKEGPMIHSGSVVGAGLPQFQSISLRKIQFNFPYFRSDRDKRDFVSAGAAAGVAAAFGAPIGGTLFSLEEGSSFWNQGLTWKVLFCSMSATFTLNFFRSGIQFGSWGSFQLPGLLNFGEFKCSDSDKKCHLWTAMDLGFFVVMGVIGGLLGATFNCLNKRLAKYRMRNVHPKPKLVRVLESLLVSLVTTVVVFVASMVLGECRQMSSSSQIGNDSFQLQVTEDVNSSIKTFFCPNDTYNDMATLFFNPQESAILQLFHQDGTFSPVTLALFFVLYFLLACWTYGISVPSGLFVPSLLCGAAFGRLVANVLKSYIGLGHIYSGTFALIGAAAFLGGVVRMTISLTVILIESTNEITYGLPIMVTLMVAKWTGDFFNKGIYDIHVGLRGVPLLEWETEVEMDKLRASDIMEPNLTYVYPHTRIQSLVSILRTTVHHAFPVVTENRGNEKEFMKGNQLISNNIKFKKSSILTRAGEQRKRSQSMKSYPSSELRNMCDEHIASEEPAEKEDLLQQMLERRYTPYPNLYPDQSPSEDWTMEERFRPLTFHGLILRSQLVTLLVRGVCYSESQSSASQPRLSYAEMAEDYPRYPDIHDLDLTLLNPRMIVDVTPYMNPSPFTVSPNTHVSQVFNLFRTMGLRHLPVVNAVGEIVGIITRHNLTYEFLQARLRQHYQTI
B6: human ClC-6 (hClC-6a): ANA-hClC-6: N410A/N432A (protein)
parent chain: MAGCRGSLCCCCRWCCCCGERETRTPEELTILGETQEEEDEILPRKDYESLDYDRCINDPYLEVLETMDNKKGRRYEAVKWMVVFAIGVCTGLVGLFVDFFVRLFTQLKFGVVQTSVEECSQKGCLALSLLELLGFNLTFVFLASLLVLIEPVAAGSGIPEVKCYLNGVKVPGIVRLRTLLCKVLGVLFSVAGGLFVEKEGPMIHSGSVVGAGLPQFQSISLRKIQFNFPYFRSDRDKRDFVSAGAAAGVAAAFGAPIGGTLFSLEEGSSFWNQGLTWKVLFCSMSATFTLNFFRSGIQFGSWGSFQLPGLLNFGEFKCSDSDKKCHLWTAMDLGFFVVMGVIGGLLGATFNCLNKRLAKYRMRNVHPKPKLVRVLESLLVSLVTTVVVFVASMVLGECRQMSSSSQIGNDSFQLQVTEDVNSSIKTFFCPNDTYNDMATLFFNPQESAILQLFHQDGTFSPVTLALFFVLYFLLACWTYGISVPSGLFVPSLLCGAAFGRLVANVLKSYIGLGHIYSGTFALIGAAAFLGGVVRMTISLTVILIESTNEITYGLPIMVTLMVAKWTGDFFNKGIYDIHVGLRGVPLLEWETEVEMDKLRASDIMEPNLTYVYPHTRIQSLVSILRTTVHHAFPVVTENRGNEKEFMKGNQLISNNIKFKKSSILTRAGEQRKRSQSMKSYPSSELRNMCDEHIASEEPAEKEDLLQQMLERRYTPYPNLYPDQSPSEDWTMEERFRPLTFHGLILRSQLVTLLVRGVCYSESQSSASQPRLSYAEMAEDYPRYPDIHDLDLTLLNPRMIVDVTPYMNPSPFTVSPNTHVSQVFNLFRTMGLRHLPVVNAVGEIVGIITRHNLTYEFLQARLRQHYQTI
B7: human ClC-6 (hClC-6a): NAN-hClC-6: N422A (protein)
parent chain: MAGCRGSLCCCCRWCCCCGERETRTPEELTILGETQEEEDEILPRKDYESLDYDRCINDPYLEVLETMDNKKGRRYEAVKWMVVFAIGVCTGLVGLFVDFFVRLFTQLKFGVVQTSVEECSQKGCLALSLLELLGFNLTFVFLASLLVLIEPVAAGSGIPEVKCYLNGVKVPGIVRLRTLLCKVLGVLFSVAGGLFVEKEGPMIHSGSVVGAGLPQFQSISLRKIQFNFPYFRSDRDKRDFVSAGAAAGVAAAFGAPIGGTLFSLEEGSSFWNQGLTWKVLFCSMSATFTLNFFRSGIQFGSWGSFQLPGLLNFGEFKCSDSDKKCHLWTAMDLGFFVVMGVIGGLLGATFNCLNKRLAKYRMRNVHPKPKLVRVLESLLVSLVTTVVVFVASMVLGECRQMSSSSQIGNDSFQLQVTEDVNSSIKTFFCPNDTYNDMATLFFNPQESAILQLFHQDGTFSPVTLALFFVLYFLLACWTYGISVPSGLFVPSLLCGAAFGRLVANVLKSYIGLGHIYSGTFALIGAAAFLGGVVRMTISLTVILIESTNEITYGLPIMVTLMVAKWTGDFFNKGIYDIHVGLRGVPLLEWETEVEMDKLRASDIMEPNLTYVYPHTRIQSLVSILRTTVHHAFPVVTENRGNEKEFMKGNQLISNNIKFKKSSILTRAGEQRKRSQSMKSYPSSELRNMCDEHIASEEPAEKEDLLQQMLERRYTPYPNLYPDQSPSEDWTMEERFRPLTFHGLILRSQLVTLLVRGVCYSESQSSASQPRLSYAEMAEDYPRYPDIHDLDLTLLNPRMIVDVTPYMNPSPFTVSPNTHVSQVFNLFRTMGLRHLPVVNAVGEIVGIITRHNLTYEFLQARLRQHYQTI

Experiment: confocal colocalisation with GFP-Rab4, transfected HeLa/COS-1
Details: glycan lost; control: wild type

localisation_or_trafficking, no change:
B1
B2
B3
B4
B5
B6
B7
